The values that follow come from patent US6391637.

The target in experiment [1] is CD40/Fc fusion protein (human) (UniProt P25942). Put plainly: BIAcore biosensor; CD40/Fc captured on the chip; second experiment.
Experiment [2] has the same target. The experiment in a line: BIAcore biosensor; CD40/Fc captured on the chip; second experiment; K2 (site 2); site 1 not detected.
Experiment [3] has the same target. The experiment in a line: BIAcore biosensor; CD40/Fc captured on the chip; first experiment.
The target is the same in experiment [4]. Put plainly: BIAcore biosensor; CD40/Fc captured on the chip; first experiment; K1 (site 1). (In SPR one partner is held on a chip, and binding of the other changes the refractive index at the surface.)
The target is the same in experiment [5]. Put plainly: BIAcore biosensor; CD40/Fc captured on the chip; first experiment; K2 (site 2).
The target is the same in experiment [6]. The experiment in a line: BIAcore biosensor; CD40/Fc captured on the chip; second experiment; K1 (site 1).
Experiment [7] has the same target. The experiment in a line: BIAcore biosensor; CD40/Fc captured on the chip; second experiment; K2 (site 2).
The target is the same in experiment [8]. Put plainly: BIAcore biosensor; CD40/Fc captured by goat anti-human IgG1 Fc on the chip, CD40-L construct at increasing concentrations; first experiment.
Experiment [9] has as its target CD40 on cells that express CD40 (UniProt P25942). The experiment in a line: cell-based or functional assay.

CD40/Fc fusion protein (human), sequence (P25942 21-193): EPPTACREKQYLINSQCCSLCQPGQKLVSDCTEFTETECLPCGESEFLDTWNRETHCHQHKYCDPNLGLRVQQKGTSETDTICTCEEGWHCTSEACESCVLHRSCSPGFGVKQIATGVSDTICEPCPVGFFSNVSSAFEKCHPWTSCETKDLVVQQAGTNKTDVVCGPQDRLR
trimeric human CD40-L (oligomerizing zipper fusion, Example 15), sequence (P29965 51-261 limits assumed): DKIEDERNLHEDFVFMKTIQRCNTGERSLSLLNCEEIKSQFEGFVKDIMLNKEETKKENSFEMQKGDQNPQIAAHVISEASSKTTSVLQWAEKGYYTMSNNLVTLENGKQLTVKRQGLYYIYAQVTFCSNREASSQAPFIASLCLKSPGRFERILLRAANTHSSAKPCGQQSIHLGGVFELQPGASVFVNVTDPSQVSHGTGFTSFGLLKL
CD40 on cells that express CD40, sequence (P25942 21-277 limits assumed): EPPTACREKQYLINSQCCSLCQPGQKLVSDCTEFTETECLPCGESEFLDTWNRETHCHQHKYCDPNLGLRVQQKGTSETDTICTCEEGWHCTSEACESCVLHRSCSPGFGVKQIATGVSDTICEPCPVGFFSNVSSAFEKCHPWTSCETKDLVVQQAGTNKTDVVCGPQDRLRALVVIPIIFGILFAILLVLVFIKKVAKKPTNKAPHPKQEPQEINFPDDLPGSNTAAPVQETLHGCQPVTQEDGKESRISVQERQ

For “monomeric human CD40-L, preparation #1 (ligand)”, the Site2 (mol/mol CD40/Fc) (mol/mol CD40/Fc) in experiment [1] was 1.2. The substance also yielded a Ka in experiment [2] of 4.6e+07 M⁻¹.
The matching figures for “monomeric human CD40-L, preparation #2 (ligand)”: 1.27 and 1.1e+07 M⁻¹.
Take “trimeric murine CD40-L (oligomerizing zipper fusion) (ligand)”: the Site1 (mol/mol CD40/Fc) (mol/mol CD40/Fc) in experiment [3] is 0.02. The Site2 (mol/mol CD40/Fc) (mol/mol CD40/Fc) in [3] was 0.44. Further, the Ka in experiment [4] was found to be 6e+10 M⁻¹; in [5], 1.6e+08 M⁻¹.
On to “trimeric human CD40-L (oligomerizing zipper fusion, Example 15) (from UniProt P29965 51-261) (ligand)”, for which the results for the Site2 (mol/mol CD40/Fc) (mol/mol CD40/Fc) in [3] and in experiment [1] were 0.68 and 0.41, respectively. The Site1 (mol/mol CD40/Fc) (mol/mol CD40/Fc) in [1] stood at 0.26; in [8], 0.04. Moreover, the Ka in [4] worked out at 5e+09 M⁻¹; in experiment [5], 7.5e+07 M⁻¹; in experiment [6] it was 6.6e+08 M⁻¹; in [7] it was 2.6e+07 M⁻¹.
In the case of “wild type CD40 ligand/zipper domain fusion protein (WT) expressed in yeast”, in experiment [9], the B-cell proliferation (U/µg), Experiment 1; WT is 77 U/µg and the B-cell proliferation (U/µg), Experiment 2; WT stood at 15 U/µg.
